Measurements reported in patent US20260201064A1 (ISU ABXIS, published 2026).

T1: recombinant human ASM protein (human, UniProt P17405 47-630)
T1 construct: Recombinant human ASM in solution; also called acid sphingomyelinase (ASM) protein
T1 sequence: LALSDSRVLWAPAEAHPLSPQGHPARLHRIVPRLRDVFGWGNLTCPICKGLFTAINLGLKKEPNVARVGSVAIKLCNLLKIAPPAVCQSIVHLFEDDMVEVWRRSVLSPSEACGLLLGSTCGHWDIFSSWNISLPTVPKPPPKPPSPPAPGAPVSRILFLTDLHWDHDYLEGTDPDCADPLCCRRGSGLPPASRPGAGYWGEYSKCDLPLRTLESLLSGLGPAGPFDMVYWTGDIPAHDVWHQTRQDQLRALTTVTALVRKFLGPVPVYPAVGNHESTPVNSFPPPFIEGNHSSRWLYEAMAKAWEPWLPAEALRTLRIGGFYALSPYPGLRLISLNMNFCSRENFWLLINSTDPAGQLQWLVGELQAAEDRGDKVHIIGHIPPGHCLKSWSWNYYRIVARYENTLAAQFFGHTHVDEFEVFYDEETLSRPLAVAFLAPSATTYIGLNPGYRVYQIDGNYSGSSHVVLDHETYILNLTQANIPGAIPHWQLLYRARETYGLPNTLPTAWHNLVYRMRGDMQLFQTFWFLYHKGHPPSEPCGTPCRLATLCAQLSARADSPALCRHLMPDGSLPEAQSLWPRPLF


Each binder was assayed against T1, recombinant human ASM protein (assay: BLI (Octet), antibody on AHC sensor).
Description: The binding affinity, to the ASM protein, of the produced antibodies specifically binding to the ASM protein and the interactive dynamics therebetween were measured using an Octet® QK384 system (Pall Life Sciences).
First, an antibody specifically binding to the ASM protein produced in Example 1 was captured using an anti-human IgG Fc capture (AHC) biosensor, and 1.25, 2.5, 5, 10, or 20 nM recombinant human ASM protein solution was added thereto. […] The association constant (Kₐ), dissociation constant (Kd), and equilibrium dissociation constant (KD) for each antibody were determined using Octet® analysis software (Pall Life® Sciences). As a result, the binding affinities, to the human ASM protein, of the antibodies with mutations in the heavy chain CDR regions of the antibody #9104 as depicted in Table 1 are shown in Table 5, and the binding affinities, to the human ASM protein, of the antibodies with mutations of the light chain CDR regions in the antibody #9104 as depicted in Table 2 are shown in Table 6.
After the small-scale expression in the ExpiCHO cell line as described above, the binding affinity to the human ASM protein was investigated as described in Experimental Example 1. Specifically, the antibody produced by a combination of #9104v-H33 heavy chain variable region and #9104v-L23 light chain variable region was not expressed and thus excluded in the analysis of binding affinity to ASM protein.

Kd	koff	kon	Binder
0.212 nM	4.27e-05 s⁻¹	202000 M⁻¹ s⁻¹	#9104a-E2 (antibody, human IgG4 S228P, lambda, V domains shown, VH of #9104v-H11 with VL of #9104v-L65; full-length IgG, lambda) VH: EVQLLESGGGLVQPGGSLRLSCAASGFTFSNYYMSWVRQAPGKGLEWVSGIYYGSGIPYYADSVKERFTISRDNSKNTLYLQMNSLRAEDTAVYYCARDTPGFDYWGQGTLVTVSS VL: QSVLTQPPSASGTPGQRVTISCTGSSSNIGNNAVNWYQQLPGTAPKLLIYYDYYQSSGVPDRFSGSKSGTSASLAISGLRSEDEADYYCGAWDYSLSAYVFGGGTKLTVLG
0.211 nM	4.59e-05 s⁻¹	218000 M⁻¹ s⁻¹	#9104a-E7 (antibody, human IgG4 S228P, lambda, V domains shown, VH of #9104v-H31 with VL of #9104v-L65; full-length IgG, lambda) VH: EVQLLESGGGLVQPGGSLRLSCAASGFTFSNYYMSWVRQAPGKGLEWVSGVYYGSGTPYYADSVKGRFTISRDNSKNTLYLQMNSLRAEDTAVYYCARDTPGFDYWGQGTLVTVSS VL: QSVLTQPPSASGTPGQRVTISCTGSSSNIGNNAVNWYQQLPGTAPKLLIYYDYYQSSGVPDRFSGSKSGTSASLAISGLRSEDEADYYCGAWDYSLSAYVFGGGTKLTVLG
1.19 nM	7.77e-05 s⁻¹	65500 M⁻¹ s⁻¹	#9104a-E6 (antibody, human IgG4 S228P, lambda, V domains shown, VH of #9104v-H27 with VL of #9104v-L65; full-length IgG, lambda) VH: EVQLLESGGGLVQPGGSLRLSCAASGFTFSNYYMSWVRQAPGKGLEWVSGTYYDSGYVYYADSVKGRFTISRDNSKNTLYLQMNSLRAEDTAVYYCARDTPGFDYWGQGTLVTVSS VL: QSVLTQPPSASGTPGQRVTISCTGSSSNIGNNAVNWYQQLPGTAPKLLIYYDYYQSSGVPDRFSGSKSGTSASLAISGLRSEDEADYYCGAWDYSLSAYVFGGGTKLTVLG
0.197 nM	4.15e-05 s⁻¹	210000 M⁻¹ s⁻¹	#9104a-E4 (antibody, human IgG4 S228P, lambda, V domains shown, VH of #9104v-H17 with VL of #9104v-L65; full-length IgG, lambda) VH: EVQLLESGGGLVQPGGSLRLSCAASGFTFSNYYMSWVRRAPGKGLEWVSGIYYGSGTPYYAASVKGRFTISRDNSKNTLYLQMNSLRAEDTAVYYCARDTPGFDYWGQGTLVTVSS VL: QSVLTQPPSASGTPGQRVTISCTGSSSNIGNNAVNWYQQLPGTAPKLLIYYDYYQSSGVPDRFSGSKSGTSASLAISGLRSEDEADYYCGAWDYSLSAYVFGGGTKLTVLG
0.28 nM	5.74e-05 s⁻¹	205000 M⁻¹ s⁻¹	#9104a-E3 (antibody, human IgG4 S228P, lambda, V domains shown, VH of #9104v-H13 with VL of #9104v-L65; full-length IgG, lambda) VH: EVQLLESGGGLVQPGGSLRLSCAASGFTFSNYYMSWVRQAPGKGLEWVSGIYYGSGIPYYANSVKGRFTISRDNSKNTLYLQMNSLRAEDTAVYYCARDTPGFDYWGQGTLVTVSS VL: QSVLTQPPSASGTPGQRVTISCTGSSSNIGNNAVNWYQQLPGTAPKLLIYYDYYQSSGVPDRFSGSKSGTSASLAISGLRSEDEADYYCGAWDYSLSAYVFGGGTKLTVLG
0.38 nM	5.66e-05 s⁻¹	149000 M⁻¹ s⁻¹	#9104a-E8 (antibody, human IgG4 S228P, lambda, V domains shown, VH of #9104v-H33 with VL of #9104v-L65; full-length IgG, lambda) VH: EVQLLESGGGLVQPGGSLRLSCAASGFTFSNYYMSWVRQAPGKGLEWVSGVYYPSGNPYYADSVKGRFTISRDNSKNTLYLQMNSLRAEDTAVYYCARDTPGFDYWGQGTLVTVSS VL: QSVLTQPPSASGTPGQRVTISCTGSSSNIGNNAVNWYQQLPGTAPKLLIYYDYYQSSGVPDRFSGSKSGTSASLAISGLRSEDEADYYCGAWDYSLSAYVFGGGTKLTVLG
0.273 nM	6.36e-05 s⁻¹	234000 M⁻¹ s⁻¹	#9104a-E5 (antibody, human IgG4 S228P, lambda, V domains shown, VH of #9104v-H19 with VL of #9104v-L65; full-length IgG, lambda) VH: EVQLLESGGGLVQPGGSLRLSCAASGFTFSNYYMSWVRQAPGKGLEWVSGIYYGSGVPYYADSVKGRFTISRDNSKNTLYLQMNSLRAEDTAVYYCARDTPGFDYWGQGTLVTVSS VL: QSVLTQPPSASGTPGQRVTISCTGSSSNIGNNAVNWYQQLPGTAPKLLIYYDYYQSSGVPDRFSGSKSGTSASLAISGLRSEDEADYYCGAWDYSLSAYVFGGGTKLTVLG
